Data from the supplement of paper PMC10567573.
± gives the standard deviation.

Experiment: protein stability index of a GFP-peptide fusion (GPS, HEK-293T) (PSI 1-6); higher = more stable
Details: c terminus: a fixed tail appended
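Note: 24-mer peptide tiles fused after GFP, lentivirally expressed, FACS-sorted into six equal bins by GFP/DsRed ratio, decoded by Illumina sequencing, PSI is the read-weighted mean bin number.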

Sequence	protein stability index (treatment: DMSO)	protein stability index (treatment: MLN4924 1 uM, 8 h)
QFTSSSSIKGSSGLGGGSSRTSCR [KRT17]	4.34 ± 0.12	4.33 ± 0.26
QRQDPAAAQEGEDEGASAGQGPKP [GAGE1]	5.62 ± 0.13	5.7 ± 0.14
PQQHFLEEKQASLWVQGDIFRSKL [CDC14A]	3.12 ± 0.18	3.14 ± 0.28
HHGGDYKHWREWGSHAQTSQIQSI [CRYBA1]	3.1 ± 0.14	3.19 ± 0.26
TVVGLFNVRDRDSGRNGEVSLDIS [PCDHGC5]	2.83 ± 0.37	3.13 ± 0.19
HELGHVFNMLHDNSKPCISLNGPL [ADAMTS4]	3 ± 0.49	2.93 ± 0.28
VEEFGVVSNTRLIAAATSVLKTRF [CCNC]	2.88 ± 0.61	2.26 ± 0.68
EPGRLGSSSPASVTTEQLGAKMTE [PXN]	5.2 ± 0.46	5.23 ± 0.24
PWLWSEQQVCQWLLWATNEFSLVN [ETS2]	2.76 ± 0.47	2.42 ± 0.46
THLLMGLAGGKLILSLEGGYNLRA [HDAC6]	3.08 ± 0.91	2.91 ± 1
TSPECASPQFEGPLSPPPINYNGI [NEUROD6]	4.07 ± 0.15	3.91 ± 0.3
PEITTEDIKAAFAPFGRISDARVV [TIA1]	3.34 ± 0.21	3.3 ± 0.13
VHRQLSHLYAEPQKSPWCEARSLE [ESR2]	2.92 ± 0.28	3.2 ± 0.24
IYPVWTYSYLVLLFPVFLATDYLR [SLC19A2]	3.11 ± 0.53	3.29 ± 0.37
ENKESWDKILALVPETIHDELQQS [PRIM1]	4.82 ± 0.3	4.72 ± 0.39
TSAEIELPDVEPAAFLALLRFLYS [BTBD1]	2.42 ± 0.25	2.34 ± 0.2
VSSLSEVEEVDMAEEFEQPTLSCE [ELOA2]	5.57 ± 0.27	5.52 ± 0.17
RSTCNVVQDEFLDTPCTNRGLPLL [DLC1]	3.21 ± 0.27	3.21 ± 0.42
KYREAARLEINVLKKIKEKDKENK [CLK3]	4.45 ± 0.18	4.25 ± 0.41
VPPRRATISSWRNDRMSTRHDGYA [RBMY1A1]	3.37 ± 0.092	3.4 ± 0.36
NQSRCEMKTFVSPEAISPDLVKKI [TRIM15]	3.98 ± 0.3	4.14 ± 0.37
GEGEPGQGEGPEAGDAEVCPTPAR [NOP53]	5.71 ± 0.2	5.67 ± 0.13
RLSSSLQGSAVTLKTSKMALSPSA [CDC14A]	3.5 ± 0.38	3.65 ± 0.32

Sequence	protein stability index (treatment: DMSO)	protein stability index (treatment: MLN4924 1 uM, 8 h)
GYTFGQDISETFNHANGLTLVSRA [PPP2CA]	3.26 ± 0.3	3.19 ± 0.28
VVELLLAHGADPTHRLKDGSTMLI [ANKRD17]	2.13 ± 0.34	2.27 ± 0.85
ILRSQLVTLLVRGVCYSESQSSAS [CLCN6]	2.88 ± 0.38	2.95 ± 0.39
LALLVLAHSSDVLENVFSSLTDDK [GOLPH3L]	2.85 ± 0.57	2.83 ± 0.49
LDLDSIIDEVRTQYEEIALKSKAE [KRT71]	3.91 ± 0.3	4.21 ± 0.57
FIICIVIAILLYKSKPDRKRAESD [PTPRD]	2.96 ± 0.72	2.97 ± 0.043
LPDPNNYYHRRNEMTTTDDLDFKH [CPXM2]	4.55 ± 0.23	4.7 ± 0.45
EMCHKPDVELLQDLGDIVARSESV [TRIM43]	4.66 ± 0.15	4.62 ± 0.24
GAAESPYSHLGGIDYKTTTILLDG [RAB40A]	3.61 ± 0.4	3.57 ± 0.17
ILENRPPGSLLCTVAASDPDTGDN [PCDHGC5]	4.99 ± 0.12	5.06 ± 0.13
VLSLVKKHYRLQFYMFAWTHVTLL [CDS1]	3.25 ± 0.56	2.8 ± 0.56
PLLCPSYQSYFKTIEELQQKILCA [KRT34]	4 ± 0.19	–
LGAGSDLKDFTLNETVNSIFAQGA [ADAMTSL2]	3.12 ± 0.2	3.28 ± 0.35
AMAERNRRDAEEWFHAKSAELNKE [KRT13]	5.03 ± 0.27	5.01 ± 0.29
PAFLKWLSLASLLVYVAAFSIGLG [SLC2A12]	3.28 ± 0.15	3.48 ± 0.79
PNRAGAPGESLECPAELRPQVPQP [TRAF3IP2]	4.97 ± 0.16	5.07 ± 0.26
SYVCRCKQGYILNSDQTTCRIQDL [MATN2]	2.4 ± 0.31	2.46 ± 0.42
TINIKCHVHDPHGQVIWGMSWAKL [FBXO39]	2.84 ± 0.5	2.67 ± 0.46
TGEVRTARALLEDDSDTQQVVVLV [PCDHGC5]	2.5 ± 0.39	2.82 ± 0.27
PPPPYEAVVSQMDQEQGSSFQMSE [FAM189A2]	5.54 ± 0.27	5.43 ± 0.096
VALLNKTNVKFLAITTDCLQILAY [CTNNB1]	2.86 ± 0.51	2.91 ± 0.42
VLGSQDALPIATAFTEYVHAYFRG [FCHO1]	2.51 ± 0.25	2.43 ± 0.21
